Assay results taken from publication PMC7891125 (Cell, 2021).

Key:
[1] = molecular target: T1, SARS-CoV-2 spike on intact virus (SARS-CoV-2/human/AUS/VIC01/2020) (SARS-CoV-2, isolate human/AUS/VIC01/2020); assay: ELISA; whole virus ELISA: SARS-CoV-2 virus captured on plates coated with mouse anti-spike mAb31, serial dilutions of IgG or Fab, ALP anti-human IgG (Fab-specific); Kd = concentration at half-maximal binding by nonlinear regression; conditions: one partner purified
T1 construct: also called intact SARS-CoV-2; virions; source: virus grown in Vero cells, supernatant; captured on plates by mAb31

[2] = molecular target: T1, SARS-CoV-2 spike on intact virus …; assay: cell-based or functional assay
[3] = molecular target: T2, His-tagged SARS-CoV-2 RBD (Severe acute respiratory syndrome …, UniProt P0DTC2); assay: BLI; conditions: both partners purified
[4] = molecular target: His-tagged RBD for structural analysis (SARS-CoV-2 Wuhan-Hu-1 (MN908947), UniProt P0DTC2, treated with endoglycosidase H1; 'glycosylated RBD' was used for the complex with Fab S309 and Fab384); assay: crystal structure; conditions: both partners purified
[5] = molecular target: T2, His-tagged SARS-CoV-2 RBD; assay: BLI; competition assay, Octet RED96e, His-tagged RBD on Anti-HIS (HIS2) biosensors, saturating antibody 15 ug/ml then competing IgG 5 ug/ml; 10 mM HEPES pH 7.4, 150 mM NaCl; conditions: both partners purified

B1: Fab 150 (Fab, V domains shown)
VH: QVQLVESGGGLIQPGGSLRLSCAASGVTVSSNYMSWVRQAPGKGLEWVSIIYSGGTTYYADSVKGRFTISRDSSMNTLYLQMNSLRAEDTAVYYCARDLMVYGIDVWGQGTTVTVSS
VL: EIVMTQSPSSLSASVGDRVTITCRASQGISSYLAWYQQKPGKAPKLLIYAASTLQSGVPSRFSGSGSGTDFTLTISSLQPEDFATYYCQQLDSYPPGYTFGQGTKVDIK
Kd [1]: 750 pM | Table S7: Neutralization IC50 (nM), FRNT of authentic SARS-CoV-2, Fab [2]: 0.61 nM

B2: mAb 150 (IgG) (antibody, V domains shown)
VH: QVQLVESGGGLIQPGGSLRLSCAASGVTVSSNYMSWVRQAPGKGLEWVSIIYSGGTTYYADSVKGRFTISRDSSMNTLYLQMNSLRAEDTAVYYCARDLMVYGIDVWGQGTTVTVSS
VL: EIVMTQSPSSLSASVGDRVTITCRASQGISSYLAWYQQKPGKAPKLLIYAASTLQSGVPSRFSGSGSGTDFTLTISSLQPEDFATYYCQQLDSYPPGYTFGQGTKVDIK
notes: IgG1
Kd [1]: 240 pM

B3: Fab 269 (Fab, V domains shown)
VH: QVQLVESGGGLIQPGGSLRLSCAASGLTVNRNYMSWIRQAPGKGLEWVSVIYSGGSTFYADSVKGRFTISRDNSKNTLSLQMNSLRAEDTAIYYCARDFYEGSFDIWGQGTMVTVSS
VL: AIQLTQSPSFLSASIGDRVTITCRASQGISSYLAWYQQKPGKAPKLLIYAASTLQSGVPSRFSGSGSGTEFTLTISSLQPEDFASYYCQQLNSYPAPVFGPGTKVDIK
Kd [3]: 2200 pM | koff [3]: 0.00039 s⁻¹ | kon [3]: 180000 M⁻¹ s⁻¹

B4: Fab 158 (Fab, V domains shown)
VH: EVQLLESGGDLIQPGGSLRLSCAASGVTVSSNYMSWVRQAPGKGLEWVSIIYPGGSTFYADSVKGRFTISRDNSKNTLYLQMHSLRAEDTAVYYCARDLGSGDMDVWGKGTTVTVSS
VL: DIVMTQSPSFLSASVGDRVTITCRASQGISSYLAWYQQKPGKAPKLLIQAASTLQSGVPSRFSGSGSGTEFTLTISSLQPEDFATYYCQQLNSYRYTFGQGTKVEIK
Kd [1]: 3730 pM | Table S7: Neutralization IC50 (nM), FRNT of authentic SARS-CoV-2, Fab [2]: 4.12 nM | Kd [3]: 700 pM | koff [3]: 8.4e-05 s⁻¹ | kon [3]: 120000 M⁻¹ s⁻¹

B5: mAb 158 (IgG) (antibody, V domains shown)
VH: EVQLLESGGDLIQPGGSLRLSCAASGVTVSSNYMSWVRQAPGKGLEWVSIIYPGGSTFYADSVKGRFTISRDNSKNTLYLQMHSLRAEDTAVYYCARDLGSGDMDVWGKGTTVTVSS
VL: DIVMTQSPSFLSASVGDRVTITCRASQGISSYLAWYQQKPGKAPKLLIQAASTLQSGVPSRFSGSGSGTEFTLTISSLQPEDFATYYCQQLNSYRYTFGQGTKVEIK
notes: IgG1
Kd [1]: 500 pM

B6: Strep-tagged Fab 158 (Fab, V domains shown)
VH: EVQLLESGGDLIQPGGSLRLSCAASGVTVSSNYMSWVRQAPGKGLEWVSIIYPGGSTFYADSVKGRFTISRDNSKNTLYLQMHSLRAEDTAVYYCARDLGSGDMDVWGKGTTVTVSS
VL: DIVMTQSPSFLSASVGDRVTITCRASQGISSYLAWYQQKPGKAPKLLIQAASTLQSGVPSRFSGSGSGTEFTLTISSLQPEDFATYYCQQLNSYRYTFGQGTKVEIK
notes: also called Fab58 (as printed in the crystallization paragraph); source: HEK293T, transient transfection, purified (Strep-Tactin)
binding result [4]: binds

B7: mAb 75 (IgG) (antibody, V domains shown)
VH: QVQLVESGGGVVQPGRSLRLSCAASGFTFNNYPLHWVRQAPGKGPEWVAVISQDGGNKYYVDSVKGRFTISRDNSKNTLYLQMNNLRAEDTALYYCARDVVVVVAARNHYYNGMDVWGQGTTVTVSS
VL: DIQLTQSPSSVSASVGDRVTITCRASQGISSWLAWYQQKPGKAPKLLIYAVSSLQSGVPSRFSGSGSGTDFTLTISSLQPEDFATYYCQQAKSFPFTFGPGTKVEIK
notes: IgG1
binding result [5]: binds

B8: Fab75 (Fab, V domains shown)
VH: QVQLVESGGGVVQPGRSLRLSCAASGFTFNNYPLHWVRQAPGKGPEWVAVISQDGGNKYYVDSVKGRFTISRDNSKNTLYLQMNNLRAEDTALYYCARDVVVVVAARNHYYNGMDVWGQGTTVTVSS
VL: DIQLTQSPSSVSASVGDRVTITCRASQGISSWLAWYQQKPGKAPKLLIYAVSSLQSGVPSRFSGSGSGTDFTLTISSLQPEDFATYYCQQAKSFPFTFGPGTKVEIK
notes: also called mAb 75
binding result [4]: binds

B9: Fab 45 (Fab, V domains shown)
VH: QVQLVESGGGVVQPGRSLRLSCAASGFTFSTYAMHWVRQAPGKGLEWVAVLSYDGSNKYYADSVKGRFTISRDNSKNTLYLQMNSLRAEDTAVYYCAKGGSYAYYYYMDVWGKGTTVTVSS
VL: not shown
Kd [3]: 5900 pM | koff [3]: 0.00046 s⁻¹ | kon [3]: 78000 M⁻¹ s⁻¹

B10: mAb 384 (IgG) (antibody, V domains shown)
VH: EVQLVESGGGLVKPGESLRLSCAASGFTFSDYYMTWIRQAPGKGLEWVSYIRSSGHTIYYADSVKGRFTISRDNAKNSLYLQMNSLRVEDTAVYYCARGGVLRFLEWPLNAFDIWGQGTMVTVSS
VL: DIQLTQSPSSLSASVGDRVTITCRASQGISNYLAWYQQKPGKVPKLLIYAASTLQSGVPSRFSGSGSGTDFTLTISSLQPEDVATYYCQKYNNALGTFGQGTKVEIK
notes: IgG1
binding result [5]: binds

B11: Fab384 (Fab, V domains shown)
VH: EVQLVESGGGLVKPGESLRLSCAASGFTFSDYYMTWIRQAPGKGLEWVSYIRSSGHTIYYADSVKGRFTISRDNAKNSLYLQMNSLRVEDTAVYYCARGGVLRFLEWPLNAFDIWGQGTMVTVSS
VL: DIQLTQSPSSLSASVGDRVTITCRASQGISNYLAWYQQKPGKVPKLLIYAASTLQSGVPSRFSGSGSGTDFTLTISSLQPEDVATYYCQKYNNALGTFGQGTKVEIK
binding result [4]: binds

B12: Fab 316 (Fab, V domains shown)
VH: not shown
VL: QAVLTQPPSASGSPGQSVTISCTGTSSDVGGYNYVSWYQQHPGKAPKLMIYEVSKRPSGVPDRFSGSKSGNTASLTVSGLQAEDEADYYCSSYAGSNHWVFGGGTKLTVL
Kd [1]: 8760 pM | Table S7: Neutralization IC50 (nM), FRNT of authentic SARS-CoV-2, Fab [2]: 27.6 nM | koff [3]: 0.00071 s⁻¹ | kon [3]: 350000 M⁻¹ s⁻¹

B13: mAb 316 (IgG) (antibody, V domains shown)
VH: not shown
VL: QAVLTQPPSASGSPGQSVTISCTGTSSDVGGYNYVSWYQQHPGKAPKLMIYEVSKRPSGVPDRFSGSKSGNTASLTVSGLQAEDEADYYCSSYAGSNHWVFGGGTKLTVL
notes: IgG1
Kd [1]: 130 pM

B14: Fab 40 (Fab, V domains shown)
VH: QVQLVESGGGLVQPGGSLRLSCAVSGFTVSRNYMSWVRQAPGKGLEWVSLIYSGGSTFYADSVKGRFTISRDNSKNTLYLQMNSLRAEDTAVYYCARDLFHRSGYHDYWGQGTLVTVSS
VL: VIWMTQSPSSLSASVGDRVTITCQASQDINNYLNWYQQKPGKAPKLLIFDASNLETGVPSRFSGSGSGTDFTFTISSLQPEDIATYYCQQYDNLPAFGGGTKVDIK
notes: also called 40 Fab
Kd [1]: 1230 pM | Table S7: Neutralization IC50 (nM), FRNT of authentic SARS-CoV-2, Fab [2]: 45.7 nM

B15: mAb 40 (IgG) (antibody, V domains shown)
VH: QVQLVESGGGLVQPGGSLRLSCAVSGFTVSRNYMSWVRQAPGKGLEWVSLIYSGGSTFYADSVKGRFTISRDNSKNTLYLQMNSLRAEDTAVYYCARDLFHRSGYHDYWGQGTLVTVSS
VL: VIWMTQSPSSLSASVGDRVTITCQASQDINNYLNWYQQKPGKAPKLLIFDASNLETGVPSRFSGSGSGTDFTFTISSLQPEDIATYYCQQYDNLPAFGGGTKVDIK
notes: IgG1
Kd [1]: 330 pM

B16: Fab 88 (Fab, V domains shown)
VH: QLQLQESGPGLVKPSQTLSLTCTVSGGSISSGSYNWTWIRQPAGKGLEWIGRIYNSGSTNYNPSLKSRVTISVDTSKNQLSLKVRSVTAADTAVYYCARHCSGGTCYPKYYYGMDVWGQGTTVTVSS
VL: QSALTQPPSVSEAPRQRVTISCSGSSSNIGNNAVNWYQQFPGKAPKLLIYYDDLLPSGVSDRFSGSKSGTSASLAISGVQSEDEADYYCAAWDDSLNVVVFGGGTKLTVL
notes: also called 88 Fab
Kd [1]: 1210 pM | Table S7: Neutralization IC50 (nM), FRNT of authentic SARS-CoV-2, Fab [2]: 6.95 nM

B17: mAb 88 (IgG) (antibody, V domains shown)
VH: QLQLQESGPGLVKPSQTLSLTCTVSGGSISSGSYNWTWIRQPAGKGLEWIGRIYNSGSTNYNPSLKSRVTISVDTSKNQLSLKVRSVTAADTAVYYCARHCSGGTCYPKYYYGMDVWGQGTTVTVSS
VL: QSALTQPPSVSEAPRQRVTISCSGSSSNIGNNAVNWYQQFPGKAPKLLIYYDDLLPSGVSDRFSGSKSGTSASLAISGVQSEDEADYYCAAWDDSLNVVVFGGGTKLTVL
notes: IgG1
Kd [1]: 250 pM

B18: mAb 159 (IgG) (antibody, V domains shown)
VH: EVQLVESGGGVVQPGRSLRLSCAASGFTFSSYGMHWVRQAPGKGLEWVALISYDGGNRYYADSVKGRFTISRDNSKNTLYLQMNRLRAEDTAMYYCAKDRDDGWDWYYFMDVWGKGTTVTVSS
VL: DIQLTQSPGTLSLSPGERATLSCRASQSISGNYLAWYQHKPGQAPRLLIYGASTRATGIPDRFSGSGSGTDFTLTISRLEPEDFAVYYCQQYGSSYTFGQGTKVEIK
notes: IgG1; also called 159 (anti-spike); IgG159
Kd [1]: 190 pM

B19: Fab 159 (Fab, V domains shown)
VH: EVQLVESGGGVVQPGRSLRLSCAASGFTFSSYGMHWVRQAPGKGLEWVALISYDGGNRYYADSVKGRFTISRDNSKNTLYLQMNRLRAEDTAMYYCAKDRDDGWDWYYFMDVWGKGTTVTVSS
VL: DIQLTQSPGTLSLSPGERATLSCRASQSISGNYLAWYQHKPGQAPRLLIYGASTRATGIPDRFSGSGSGTDFTLTISRLEPEDFAVYYCQQYGSSYTFGQGTKVEIK
notes: also called 159 Fab
Kd [1]: 290 pM

B20: chimeric mAb 253H165L (IgG) (antibody, V domains shown)
VH: not shown
VL: DIVMTQSPGTLSLSPGERATLSCRASQSVRSSYLAWYQQKPGQAPRLLIYGASRRGTGIPDRFSGSGSGTDFTLTISRLEPEDFAVYYCQQYGSSPWTFGQGTKVEIK
Kd [1]: 90 pM | Table S7: Neutralization IC50 (nM), FRNT of authentic SARS-CoV-2 [2]: 0.03 nM

B21: chimeric Fab 253H165L (Fab, V domains shown)
VH: not shown
VL: DIVMTQSPGTLSLSPGERATLSCRASQSVRSSYLAWYQQKPGQAPRLLIYGASRRGTGIPDRFSGSGSGTDFTLTISRLEPEDFAVYYCQQYGSSPWTFGQGTKVEIK
Kd [1]: 5020 pM | Table S7: Neutralization IC50 (nM), FRNT of authentic SARS-CoV-2, Fab [2]: 5.22 nM
